Reference: patent publication US20180244785A1 (MERRIMACK PHARMACEUTICALS, published 2018)

T1: FGFR2IIIb Fc fusion (negative control) (human)
T1 construct: also called FGFR2b; not shown: Fc part of the FGFR-Fc fusion
T1 chain: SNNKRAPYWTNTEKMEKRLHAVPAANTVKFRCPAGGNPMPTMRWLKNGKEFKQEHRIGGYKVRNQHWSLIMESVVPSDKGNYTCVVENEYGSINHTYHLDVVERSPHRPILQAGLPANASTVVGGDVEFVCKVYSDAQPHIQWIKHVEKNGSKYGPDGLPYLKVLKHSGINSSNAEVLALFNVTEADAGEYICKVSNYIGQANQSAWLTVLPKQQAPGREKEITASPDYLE

T2: recombinant human FGFR3c Fc fusion (human, UniProt P22607 141-372)
T2 construct: also called FGFR3IIIc; not shown: Fc part of the FGFR-Fc fusion
T2 sequence: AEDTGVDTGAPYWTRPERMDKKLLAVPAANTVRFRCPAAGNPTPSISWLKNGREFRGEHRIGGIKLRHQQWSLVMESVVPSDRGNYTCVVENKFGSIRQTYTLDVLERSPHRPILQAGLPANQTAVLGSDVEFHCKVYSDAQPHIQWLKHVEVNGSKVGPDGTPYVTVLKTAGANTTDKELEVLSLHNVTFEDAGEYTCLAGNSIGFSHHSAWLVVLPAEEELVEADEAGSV

T3: recombinant human FGFR4 Fc fusion (human, UniProt P22455 144-369)
T3 construct: 19 used; also called FGFR4c; not shown: Fc part of the FGFR-Fc fusion
T3 sequence: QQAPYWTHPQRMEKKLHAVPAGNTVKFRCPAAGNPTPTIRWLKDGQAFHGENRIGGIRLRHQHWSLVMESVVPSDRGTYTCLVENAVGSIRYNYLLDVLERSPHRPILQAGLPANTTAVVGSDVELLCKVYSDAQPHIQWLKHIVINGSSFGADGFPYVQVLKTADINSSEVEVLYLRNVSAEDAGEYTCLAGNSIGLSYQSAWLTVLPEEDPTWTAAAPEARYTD

T4: recombinant human FGFR1c Fc fusion (human, UniProt P11362 141-376)
T4 construct: also called FGFR1IIIc; not shown: Fc part of the FGFR-Fc fusion
T4 sequence: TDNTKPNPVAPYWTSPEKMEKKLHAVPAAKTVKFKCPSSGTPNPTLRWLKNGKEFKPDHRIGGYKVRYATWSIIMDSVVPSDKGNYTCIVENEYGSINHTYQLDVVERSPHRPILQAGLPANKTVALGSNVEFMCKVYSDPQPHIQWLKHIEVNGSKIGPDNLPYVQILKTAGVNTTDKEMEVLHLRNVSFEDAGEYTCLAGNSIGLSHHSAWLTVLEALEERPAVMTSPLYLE

B1: Ab14 (scFv format) (scFv)
scFv: EVQLVETGGGLIQPGGSLRLSCVASGFTVSSNYMSWVRQAPGKGLEWVSVIFSDGTTYYADSVKGRFTISRDNSKNTLYLQMNSLKTEDTAVYYCVAGPANGAYDIWGQGTMVTVSSASTGGGSGGGGSNIQMTQSPSILSASVGDRVTITCRASQSISNWLAWYQQKPGKAPKLLIFRASTLESGVPSRFSGSGSGAEFNLTISSLQPDDFATYYCQQYNVYSGTFGQGTKVEIKRTVAAPSHHHHHH
notes: also called FGF#24
B2: Ab15 (scFv format) (scFv)
scFv: EVQLLESGGGVVQPGRSLRLSCAASGFTFSSYAMHWVRQAPGKGLEWVAVISYDGSNKYYADSVKGRFTISRDNSKNTLSLQMNSLRVEDTAIYYCVRGAGRGYTYGPDGFDIWGQGTMVTVSSASTGGGGSGGGGSGGGGSGGGGSDIVMTQTPLSLSVTPGQPASISCTSSRSLLHSDGKTYVYWYVQKSGQPPQLLIYELSNRFSGVPDRFSGSGSRTDFTLKISRVEAEDVGVYYCMQYIEAPLTFGGGTKVEIKRTVAAPSHHHHHH
notes: also called FGF#26
B3: Ab3 (scFv format) (scFv)
scFv: EVQLVESGGGVVQPGRSLRLSCAASGFTFSQYSMHWVRQSPGKGLEWVTLISFDGADKYYADSVKGRFTISRDNSNDTLFLHMNGLRVEDTAIYYCVRGAGRGYTYGPDGFDIWGQGTMVTVSSASTGGGGSGGGGSGGGGSGGGGSDIQLTQSPSSLSASVGDRVTITCRTSQTISRYLNWYQQQPGKAPKLLIYTATSLQSGVPSRFSGSGSGTDFTLTIGGLQPEDFAIYFCQQTYSAPLTFGGGTKVEIKRTVAAPSHHHHHH
notes: also called FGF#78
B4: Ab7 (scFv format) (scFv)
scFv: QVQLVESGGGVVQPGRSLRLSCAASGFTFSGYAIHWVRQAPGKGLEWVALISYDGSNKYYADSAKGRFTISRDNSKNTLSLQMNSLRVEDTAIYYCVRGAGRGYTYGPDGFDIWGQGTMVTVSSASTGGGGSGGGGSGGGGSGGGGSDIVMTQTPLSSPVTLGQPASISCRSSESLVYRDGNTYLSWLHQRPGQSPRLLIYKVSNRFSGVPDRFSGSGAGTDFTLKISRVEAEDVGVYFCMQATQFPWTFGQGTKVEIKRTVAAPSHHHHHH
notes: also called FGF#51
B5: Ab4 (scFv format) (scFv)
scFv: EVQLLESGGGVVQPGRSLRLSCAASGFTFSSYAMHWVRQAPGKGLEWVALISYDGSNKYYADSVKGRFTISRDNSKNTLYLQMNSLRAEDTAIYYCVRGAGRGYTYGPDGFDIWGQGTMVTVSSASTGGGSGGGGSDIVMTQTPLSLSVTPGQPASIFCKSSQSLIFGDGKTYLYWYLQKPGQPPRLLIYQVSNRFSGVPDRFSGSGAGTDFTLKISRVEAEDVGVYYCMQAKQFPWTFGQGTKLEIKRTVAAPSHHHHHH
notes: also called FGF#10

Molecular target: T1, FGFR2IIIb Fc fusion (negative control)
Assay: ELISA, scFv on coated FGFR-Fc
Procedure: (§1) To characterize the novel anti-FGFR antibodies, their relative ability to bind to each individual FGFR in vitro was compared. A solid phase-based ELISA was used to measure the relative binding of the candidate antibodies to immobilized recombinant human FGFR1c, FGFR2c, FGFR3c, and FGFR4. EC50 binding curves were generated for a subset of candidates (FIGS. 3A-3D, respectively; Table 1).
(§2) For the ELISA assay, the ability of each mAb to cross react with the […] FGF receptors was tested across a concentration curve in order to determine the relative binding across FGFR1-4. FGFR2IIIb was used as a negative control. Black 384-well Maxisorp plates were coated overnight with FGFR-Fc fusions in PBS to 1 ug/ml before washing and blocking with 75 ul/well Pierce Protein Free (PBS) Blocking Buffer for 1 hour at RT. Antibody dilutions were prepared freshly in 1% BSA- PBS+0.05% Tween20 and 25 ul of each antibody was added to wells in duplicate. Plates were incubated at RT for 2 hours, followed by addition of detection antibody at 50 ng/ml in 1% BSA PBS, 0.05% Tween20. ECL substrate (Pierce) was added and plates were read on the EnVision plate reader.

EC50 [nM] | Binder
~557000 | B1
~80000 | B2
~108000 | B3
~96700 | B4

molecular target: T2, recombinant human FGFR3c Fc fusion; assay: ELISA, scFv on coated FGFR-Fc
Procedure: as §1, §2

EC50 [nM] | Binder
77.2 | B1
0.326 | B2
2.02 | B3
25.9 | B5
1.36 | B4

molecular target: T3, recombinant human FGFR4 Fc fusion; assay: ELISA, scFv on coated FGFR-Fc
Procedure: as §1, §2

EC50 [nM] | Binder
72 | B1
0.312 | B2
1.07 | B3
0.506 | B5
0.278 | B4

molecular target: T5, recombinant human FGFR2c Fc fusion (human, UniProt P21802 148-377); assay: ELISA, scFv on coated FGFR-Fc
T5 construct: also called FGFR2IIIc; not shown: Fc part of the FGFR-Fc fusion
T5 sequence (P21802 148-377): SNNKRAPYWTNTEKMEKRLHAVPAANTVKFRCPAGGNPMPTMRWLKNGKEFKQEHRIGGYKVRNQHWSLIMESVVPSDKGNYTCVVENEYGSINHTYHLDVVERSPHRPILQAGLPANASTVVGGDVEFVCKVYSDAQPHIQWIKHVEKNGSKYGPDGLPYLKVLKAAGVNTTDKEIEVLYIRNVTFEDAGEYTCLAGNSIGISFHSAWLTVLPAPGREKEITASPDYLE
Procedure: as §1, §2

EC50 [nM] | Binder
75.7 | B1
0.247 | B2
0.62 | B3
1.47 | B4

molecular target: T4, recombinant human FGFR1c Fc fusion; assay: ELISA, scFv on coated FGFR-Fc
Procedure: as §1, §2

EC50 [nM] | Binder
129 | B1
0.293 | B2
0.319 | B3
0.247 | B5
0.201 | B4
